Sequences and labels used below:
B1: SHC4 (protein, UniProt Q6S5L8 1-630, looked up)
SHC-transforming protein 4: MRERGQDSLAGLVLYVGLFGHPGMLHRAKYSRFRNESITSLDEGSSGGSVGNKGSPQPPHPALAPHLPTEDATLPSQESPTPLCTLIPRMASMKLANPATLLSLKNFCLGTKEVPRLKLQESRDPGSSGPSSPETSLSRSGTAPPPQQDLVGHRATALTPDSCPLPGPGEPTLRSRQDRHFLQHLLGMGMNYCVRYMGCVEVLQSMRSLDFGMRTQVTREAISRLCEAVPGANGAIKKRKPPVKFLSTVLGKSNLQFSGMNIKLTISTCSLTLMNLDNQQIIANHHMQSISFASGGDPDTTDYVAYVAKDPVNQRACHILECHNGMAQDVISTIGQAFELRFKQYLKNPSLNTSCESEEVHIDSHAEEREDHEYYNEIPGKQPPVGGVSDMRIKVQATEQMAYCPIQCEKLCYLPGNSKCSSVYENCLEQSRAIGNVHPRGVQSQRDTSLLKHTCRVDLFDDPCYINTQALQSTPGSAGNQRSAQPLGSPWHCGKAPETVQPGATAQPASSHSLPHIKQQLWSEECYHGKLSRKAAESLLVKDGDFLVRESATSPGQYVLSGLQGGQAKHLLLVDPEGKVRTKDHVFDNVGHLIRYHMDNSLPIISSGSEVSLKQPVRKDNNPALLHSNK
B2: ARHGEF7 (protein, UniProt Q14155 1-803, looked up)
Rho guanine nucleotide …: MNSAEQTVTWLITLGVLESPKKTISDPEGFLQASLKDGVVLCRLLERLLPGTIEKVYPEPRSESECLSNIREFLRGCGASLRLELLFPPSQPPQHLVTTILLSASTFDANDLYQGQNFNKVLSSLVTLNKVTADIGLGSDSVCARPSSHRIKSFDSLGSQSLHTRTSKLFQGQYRSLDMTDNSNNQLVVRAKFNFQQTNEDELSFSKGDVIHVTRVEEGGWWEGTLNGRTGWFPSNYVREVKASEKPVSPKSGTLKSPPKGFDTTAINKSYYNVVLQNILETENEYSKELQTVLSTYLRPLQTSEKLSSANISYLMGNLEEICSFQQMLVQSLEECTKLPEAQQRVGGCFLNLMPQMKTLYLTYCANHPSAVNVLTEHSEELGEFMETKGASSPGILVLTTGLSKPFMRLDKYPTLLKELERHMEDYHTDRQDIQKSMAAFKNLSAQCQEVRKRKELELQILTEAIRNWEGDDIKTLGNVTYMSQVLIQCAGSEEKNERYLLLFPNVLLMLSASPRMSGFIYQGKLPTTGMTITKLEDSENHRNAFEISGSMIERILVSCNNQQDLQEWVEHLQKQTKVTSVGNPTIKPHSVPSHTLPSHPVTPSSKHADSKPAPLTPAYHTLPHPSHHGTPHTTINWGPLEPPKTPKPWSLSCLRPAPPLRPSAALCYKEDLSKSPKTMKKLLPKRKPERKPSDEEFASRKSTAALEEDAQILKVIEAYCTSAKTRQTLNSTWQGTDLMHNHVLADDDQPSLDSLGRRSSLSRLEPSDLSEDSDYDSIWTAHSYRMGSTSRKSCCSYISHQN
B3: TNS3 (protein, UniProt Q68CZ2 1-1445, looked up)
Tensin-3: MEEGHGLDLTYITERIIAVSFPAGCSEESYLHNLQEVTRMLKSKHGDNYLVLNLSEKRYDLTKLNPKIMDVGWPELHAPPLDKMCTICKAQESWLNSNLQHVVVIHCRGGKGRIGVVISSYMHFTNVSASADQALDRFAMKKFYDDKVSALMQPSQKRYVQFLSGLLSGSVKMNASPLFLHFVILHGTPNFDTGGVCRPFLKLYQAMQPVYTSGIYNVGPENPSRICIVIEPAQLLKGDVMVKCYHKKYRSATRDVIFRLQFHTGAVQGYGLVFGKEDLDNASKDDRFPDYGKVELVFSATPEKIQGSEHLYNDHGVIVDYNTTDPLIRWDSYENLSADGEVLHTQGPVDGSLYAKVRKKSSSDPGIPGGPQAIPATNSPDHSDHTLSVSSDSGHSTASARTDKTEERLAPGTRRGLSAQEKAELDQLLSGFGLEDPGSSLKEMTDARSKYSGTRHVVPAQVHVNGDAALKDRETDILDDEMPHHDLHSVDSLGTLSSSEGPQSAHLGPFTCHKSSQNSLLSDGFGSNVGEDPQGTLVPDLGLGMDGPYERERTFGSREPKQPQPLLRKPSVSAQMQAYGQSSYSTQTWVRQQQMVVAHQYSFAPDGEARLVSRCPADNPGLVQAQPRVPLTPTRGTSSRVAVQRGVGSGPHPPDTQQPSPSKAFKPRFPGDQVVNGAGPELSTGPSPGSPTLDIDQSIEQLNRLILELDPTFEPIPTHMNALGSQANGSVSPDSVGGGLRASSRLPDTGEGPSRATGRQGSSAEQPLGGRLRKLSLGQYDNDAGGQLPFSKCAWGKAGVDYAPNLPPFPSPADVKETMTPGYPQDLDIIDGRILSSKESMCSTPAFPVSPETPYVKTALRHPPFSPPEPPLSSPASQHKGGREPRSCPETLTHAVGMSESPIGPKSTMLRADASSTPSFQQAFASSCTISSNGPGQRRESSSSAERQWVESSPKPMVSLLGSGRPTGSPLSAEFSGTRKDSPVLSCFPPSELQAPFHSHELSLAEPPDSLAPPSSQAFLGFGTAPVGSGLPPEEDLGALLANSHGASPTPSIPLTATGAADNGFLSHNFLTVAPGHSSHHSPGLQGQGVTLPGQPPLPEKKRASEGDRSLGSVSPSSSGFSSPHSGSTISIPFPNVLPDFSKASEAASPLPDSPGDKLVIVKFVQDTSKFWYKADISREQAIAMLKDKEPGSFIVRDSHSFRGAYGLAMKVATPPPSVLQLNKKAGDLANELVRHFLIECTPKGVRLKGCSNEPYFGSLTALVCQHSITPLALPCKLLIPERDPLEEIAESSPQTAANSAAELLKQGAACNVWYLNSVEMESLTGHQAIQKALSITLVQEPPPVSTVVHFKVSAQGITLTDNQRKLFFRRHYPVNSVIFCALDPQDRKWIKDGPSSKVFGFVARKQGSATDNVCHLFAEHDPEQPASAIVNFVSKVMIGSPKKV
B4: HSPA4 (protein, UniProt P34932 1-840, looked up)
Heat shock 70 kDa protein 4: MSVVGIDLGFQSCYVAVARAGGIETIANEYSDRCTPACISFGPKNRSIGAAAKSQVISNAKNTVQGFKRFHGRAFSDPFVEAEKSNLAYDIVQLPTGLTGIKVTYMEEERNFTTEQVTAMLLSKLKETAESVLKKPVVDCVVSVPCFYTDAERRSVMDATQIAGLNCLRLMNETTAVALAYGIYKQDLPALEEKPRNVVFVDMGHSAYQVSVCAFNRGKLKVLATAFDTTLGGRKFDEVLVNHFCEEFGKKYKLDIKSKIRALLRLSQECEKLKKLMSANASDLPLSIECFMNDVDVSGTMNRGKFLEMCNDLLARVEPPLRSVLEQTKLKKEDIYAVEIVGGATRIPAVKEKISKFFGKELSTTLNADEAVTRGCALQCAILSPAFKVREFSITDVVPYPISLRWNSPAEEGSSDCEVFSKNHAAPFSKVLTFYRKEPFTLEAYYSSPQDLPYPDPAIAQFSVQKVTPQSDGSSSKVKVKVRVNVHGIFSVSSASLVEVHKSEENEEPMETDQNAKEEEKMQVDQEEPHVEEQQQQTPAENKAESEEMETSQAGSKDKKMDQPPQAKKAKVKTSTVDLPIENQLLWQIDREMLNLYIENEGKMIMQDKLEKERNDAKNAVEEYVYEMRDKLSGEYEKFVSEDDRNSFTLKLEDTENWLYEDGEDQPKQVYVDKLAELKNLGQPIKIRFQESEERPKLFEELGKQIQQYMKIISSFKNKEDQYDHLDAADMTKVEKSTNEAMEWMNNKLNLQNKQSLTMDPVVKSKEIEAKIKELTSTCSPIISKPKPKVEPPKEEQKNAEQNGPVDGQGDNPGPQAAEQGTDTAVPSDSDKKLPEMDID

The first assay deals with T1, EGFR-L858R (Homo sapiens, UniProt P00533, L858R).
T1 construct: with the advantage of testing full-length integral membrane proteins; (GGGGS)2 linker-Cub (human ubiquitin aa 35-76)-GAL4(1-147)-mNFkB(364-550) (C); expressed in transfected cells
Kind of assay: MaMTH EGFR-interactor screen, lentiviral preys against EGFR-L858R bait (interaction score). The conditions noted are these: MaMTH interaction score of prey with EGFR-L858R bait. The format is cell-based. The essentials: (§1)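 5×GAL4UAS-luciferase HEK293T reporter cells were lentivirally infected with preys (MOI ~0.3-0.4) and puromycin-selected ≥48 h. They were then transfected in triplicate with the EGFR bait, and luciferase was read 24 h later. Score is fold-change over averaged negative-control preys; >1 denotes interaction.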
As to B1, the EGFR-L858R mean was 11.39.

With B2, the EGFR-L858R mean is 2.76.

In the case of B3, the EGFR-L858R mean stood at 3.12.

Take B4: the EGFR-L858R mean came out at 2.48.

The test system of another assay is EGFR-Wt. Kind of assay: MaMTH EGFR-interactor screen, lentiviral preys against EGFR-wildtype bait (interaction score). The format is cell-based, human. The conditions noted are these: ratio of EGFR-Wt mean to EGFR-L858R mean interaction score. The essentials:
as §1
Regarding B1, the Wt/L858R is 0.47.

In the case of B2, the Wt/L858R amounted to 0.45.

In the case of B3, the Wt/L858R stood at 0.45.

For the molecule B4, the Wt/L858R came out at 0.46.

The target in a further assay is T2, EGFR-Wt (Homo sapiens, UniProt P00533).
T2 construct: with the advantage of testing full-length integral membrane proteins; (GGGGS)2 linker-Cub (human ubiquitin aa 35-76)-GAL4(1-147)-mNFkB(364-550) (C); expressed in transfected cells
The description is as above. As to conditions: MaMTH interaction score of prey with EGFR-Wt bait, mean. The format is cell-based. The essentials:
as §1
B1 displayed an EGFR-Wt mean of 5.31.

Consider B2, for which the EGFR-Wt mean was 1.24.

Molecule B3 gave an EGFR-Wt mean of 1.39.

Turning to B4, the EGFR-Wt mean turned out to be 1.13.

Values taken from US9958461B2, “Detection of protein to protein interactions” (THE GOVERNING COUNCIL OF THE UNIVERSITY OF TORONTO, priority 2013, dated 2018).
